Laboratory results from publication PMC11931385, “Structural and functional analysis of cancer-associated missense variants in the retinoblastoma protein pocket domain” (The Journal of Biological Chemistry, 2025).
No end group written: not given here. TMR = tetramethyl rhodamine dye

Tests used:
Assay in all cases: fluorescence polarisation; 25 °C; unlabeled Rb^P titrated against 1.5 nM TMR-E2F1^TD or 7.5 nM TMR-E7^LxCxE; 25 mM Tris pH 8.0, 200 mM NaCl, 1 mM DTT, 0.1% Tween-20; 2 min incubation; quadratic fit; apparent Kd for the variants, Kd for WT
Conditions in all cases: both partners purified
[1] = target: T1, Rb^P R611S (human, UniProt P06400 380-788, R611S)
T1 construct: also called variant 38
T1 sequence (looked up): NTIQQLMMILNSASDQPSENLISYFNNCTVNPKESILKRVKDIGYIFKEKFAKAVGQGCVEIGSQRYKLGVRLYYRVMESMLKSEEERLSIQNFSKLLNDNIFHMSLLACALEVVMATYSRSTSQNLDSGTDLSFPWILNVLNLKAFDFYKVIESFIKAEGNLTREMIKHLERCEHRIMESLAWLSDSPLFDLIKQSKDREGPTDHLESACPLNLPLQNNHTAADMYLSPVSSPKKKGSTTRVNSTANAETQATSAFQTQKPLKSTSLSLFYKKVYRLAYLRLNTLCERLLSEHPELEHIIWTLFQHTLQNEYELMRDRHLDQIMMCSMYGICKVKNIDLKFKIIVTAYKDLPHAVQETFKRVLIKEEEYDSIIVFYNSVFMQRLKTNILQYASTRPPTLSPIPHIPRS

[2] = target: T2, Rb^P R656Q (human, UniProt P06400 380-788, R656Q)
T2 construct: also called variant 48
T2 sequence (looked up): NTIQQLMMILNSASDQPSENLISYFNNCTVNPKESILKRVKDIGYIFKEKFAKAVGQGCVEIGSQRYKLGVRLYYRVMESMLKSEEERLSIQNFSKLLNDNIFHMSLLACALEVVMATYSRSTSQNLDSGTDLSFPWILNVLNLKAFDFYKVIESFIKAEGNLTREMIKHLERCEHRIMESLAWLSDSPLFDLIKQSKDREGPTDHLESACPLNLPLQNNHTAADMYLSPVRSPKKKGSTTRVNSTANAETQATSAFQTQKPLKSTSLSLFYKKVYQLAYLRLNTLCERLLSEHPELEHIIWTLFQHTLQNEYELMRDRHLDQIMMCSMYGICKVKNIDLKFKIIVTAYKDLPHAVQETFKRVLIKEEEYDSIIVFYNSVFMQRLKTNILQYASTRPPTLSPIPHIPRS

[3] = target: T3, Rb^P R621C (human, UniProt P06400 380-788, R621C)
T3 construct: also called variant 41
T3 sequence (looked up): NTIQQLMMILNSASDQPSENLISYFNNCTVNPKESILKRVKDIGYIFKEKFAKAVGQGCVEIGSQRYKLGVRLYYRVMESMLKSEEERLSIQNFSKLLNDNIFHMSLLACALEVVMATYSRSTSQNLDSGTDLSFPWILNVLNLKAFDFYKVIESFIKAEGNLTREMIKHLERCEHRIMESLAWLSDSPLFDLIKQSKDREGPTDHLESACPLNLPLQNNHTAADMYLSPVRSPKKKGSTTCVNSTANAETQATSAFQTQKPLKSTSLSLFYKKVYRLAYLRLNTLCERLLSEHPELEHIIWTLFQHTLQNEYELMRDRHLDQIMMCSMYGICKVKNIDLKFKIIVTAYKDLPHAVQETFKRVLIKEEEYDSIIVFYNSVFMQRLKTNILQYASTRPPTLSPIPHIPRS

[4] = target: T4, Rb^P M695I (human, UniProt P06400 380-788, M695I)
T4 construct: also called variant 61
T4 sequence (looked up): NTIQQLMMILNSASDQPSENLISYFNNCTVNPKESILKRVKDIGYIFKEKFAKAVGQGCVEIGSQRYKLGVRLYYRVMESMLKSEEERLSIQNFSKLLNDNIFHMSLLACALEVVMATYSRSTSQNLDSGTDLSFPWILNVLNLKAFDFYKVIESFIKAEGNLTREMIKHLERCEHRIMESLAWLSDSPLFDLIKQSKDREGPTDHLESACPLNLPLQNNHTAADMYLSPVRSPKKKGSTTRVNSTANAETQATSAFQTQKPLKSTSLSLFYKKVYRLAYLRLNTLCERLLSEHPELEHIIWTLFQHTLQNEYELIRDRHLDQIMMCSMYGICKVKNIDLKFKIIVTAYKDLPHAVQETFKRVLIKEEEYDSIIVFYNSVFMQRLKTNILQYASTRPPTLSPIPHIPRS

[5] = target: T5, Rb^P S588F (human, UniProt P06400 380-788, S588F)
T5 construct: also called variant 34
T5 sequence (looked up): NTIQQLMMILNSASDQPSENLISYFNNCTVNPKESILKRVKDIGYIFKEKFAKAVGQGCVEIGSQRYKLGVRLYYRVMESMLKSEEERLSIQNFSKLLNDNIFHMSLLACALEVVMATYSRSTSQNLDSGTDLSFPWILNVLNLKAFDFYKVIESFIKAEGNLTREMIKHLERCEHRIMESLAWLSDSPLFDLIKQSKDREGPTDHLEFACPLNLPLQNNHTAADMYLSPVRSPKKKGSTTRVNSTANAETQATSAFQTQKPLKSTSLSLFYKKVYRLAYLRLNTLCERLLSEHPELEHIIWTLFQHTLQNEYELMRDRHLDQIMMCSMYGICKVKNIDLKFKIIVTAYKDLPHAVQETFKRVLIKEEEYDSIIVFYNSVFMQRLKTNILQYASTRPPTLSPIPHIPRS

B1: TMR-E2F1^TD, peptide of the E2F1 transactivation domain (peptide)
peptide: {TMR}-GEGIRDLFDCDFGDLTPLD
notes: also called E2F^TD; source: synthetic peptide, bought: GenScript
[1]
  Kd: 0.015 µM
[2]
  Kd: 0.183 µM
[3]
  Kd: 0.022 µM
[4]
  Kd: 0.043 µM
[5]
  Kd: 0.036 µM

B2: TMR-E7^LxCxE, LxCxE peptide of the E7 oncoprotein from HPV (peptide)
peptide: DLYCYEQLN
modifications: also: TMR label, position not given here
notes: source: synthetic peptide, bought: GenScript
[1]
  Kd: 0.005 µM
[2]
  Kd: 0.006 µM
[3]
  Kd: 0.012 µM
[4]
  Kd: 0.011 µM
[5]
  Kd: 0.005 µM
